# Measurements as given in patent US20250011363A1, “OPTIMIZED SHORTENED PEPTIDE THAT BINDS TO ACETYLCHOLINE RECEPTOR, AND USE THEREOF” (SKINMED CO., LTD., priority 2021, published 2025).
# Target: acetylcholine receptor (Homo sapiens, UniProt P02708)
# Experiment: SPR binding affinity (RU) of optimized 5mer/6mer/7mer peptides, Examples 6-7
# Conditions: SPR, Resonance Units; peptides tested at 10 μM; 6mer-2 Top sequence (Table 12)
# In short: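 SPR, peptides at 10 μM; read-out = response units (RU). Sequences drawn from top- or bottom-frequency amino acid combinations, 5mer/6mer-1/6mer-2 libraries.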
# Chain of acetylcholine receptor (P02708 21-457): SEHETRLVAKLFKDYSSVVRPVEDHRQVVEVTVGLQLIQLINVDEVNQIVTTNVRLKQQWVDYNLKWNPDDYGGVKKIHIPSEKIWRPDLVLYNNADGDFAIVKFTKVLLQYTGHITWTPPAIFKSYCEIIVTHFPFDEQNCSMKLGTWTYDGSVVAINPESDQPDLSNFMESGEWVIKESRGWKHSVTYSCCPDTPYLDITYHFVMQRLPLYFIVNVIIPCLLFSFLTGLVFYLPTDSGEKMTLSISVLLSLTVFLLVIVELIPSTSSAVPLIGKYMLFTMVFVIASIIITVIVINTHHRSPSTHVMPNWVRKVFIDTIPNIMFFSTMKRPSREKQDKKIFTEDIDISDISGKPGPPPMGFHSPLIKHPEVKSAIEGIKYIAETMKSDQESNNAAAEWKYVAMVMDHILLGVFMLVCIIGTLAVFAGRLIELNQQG
row,Substance,Binding affinity
1,6mer-2-253 (KLRSRR),145 Ru
2,6mer-2-254 (KRIQRR),148 Ru
3,6mer-2-255 (RLRRKK),139 Ru
4,6mer-2-256 (KSQQKR),142 Ru
5,6mer-2-257 (KRFCRK),144 Ru
6,6mer-2-258 (KRIYRR),125 Ru
7,6mer-2-259 (RVQSKR),128 Ru
8,6mer-2-260 (RRFCKR),142 Ru
9,6mer-2-261 (RWYTKK),121 Ru
10,6mer-2-262 (KWILKR),142 Ru
11,6mer-2-263 (RRICKR),145 Ru
12,6mer-2-264 (KSQLKR),127 Ru
13,6mer-2-265 (RRQTRK),135 Ru
14,6mer-2-266 (RWQTKK),131 Ru
15,6mer-2-267 (KLYSRR),141 Ru
16,6mer-2-268 (RQICKK),139 Ru
17,6mer-2-269 (KWVQRK),123 Ru
18,6mer-2-270 (KSRLRR),148 Ru
19,6mer-2-271 (RLFQKK),131 Ru
20,6mer-2-272 (KWRSRK),154 Ru
21,6mer-2-273 (KLRQRR),131 Ru
22,6mer-2-274 (KLRTKR),148 Ru

row,Substance,Binding affinity
1,6mer-2-275 (KLITRR),135 Ru
2,6mer-2-276 (RLVCRK),153 Ru
3,6mer-2-277 (RLRYRK),128 Ru
4,6mer-2-278 (RQIQKK),135 Ru
5,6mer-2-279 (KSLQRK),148 Ru
6,6mer-2-280 (KSIYRR),153 Ru
7,6mer-2-281 (KGQRKK),149 Ru
8,6mer-2-282 (RQQYRK),151 Ru
9,6mer-2-283 (KLISKR),148 Ru
10,6mer-2-284 (KLRSKR),151 Ru
11,6mer-2-285 (RRIQRR),142 Ru
12,6mer-2-286 (KRRYKK),139 Ru
13,6mer-2-287 (RLYLKR),124 Ru
14,6mer-2-288 (KSRLRK),122 Ru
15,6mer-2-289 (RLLQKK),146 Ru
16,6mer-2-290 (RQLYRK),135 Ru
17,6mer-2-291 (RRYRKR),154 Ru
18,6mer-2-292 (RQLCKR),121 Ru
19,6mer-2-293 (KQQSKR),153 Ru
20,6mer-2-294 (KLYYRR),135 Ru
21,6mer-2-295 (KVRYKK),145 Ru
22,6mer-2-296 (KWYRRK),135 Ru

row,Substance,Binding affinity
1,6mer-2-297 (RSLSRR),139 Ru
2,6mer-2-298 (KWICKK),149 Ru
3,6mer-2-299 (RWYYRK),141 Ru
4,6mer-2-300 (RWRLKK),153 Ru
5,6mer-2-301 (RQVRKR),122 Ru
6,6mer-2-302 (KQICKK),148 Ru
7,6mer-2-303 (KVFTKR),126 Ru
8,6mer-2-304 (KWFYRK),144 Ru
9,6mer-2-305 (KQFYKK),154 Ru
10,6mer-2-306 (RQFQKR),141 Ru
11,6mer-2-307 (RLRSKK),141 Ru
12,6mer-2-308 (KGISKR),148 Ru
13,6mer-2-309 (KRRRRR),151 Ru
14,6mer-2-310 (KLFQRK),149 Ru
15,6mer-2-311 (KVVTRK),147 Ru
16,6mer-2-312 (KWRTKR),121 Ru
17,6mer-2-313 (RWRTKR),154 Ru
18,6mer-2-314 (KQYCKK),127 Ru
19,6mer-2-315 (RRQRRR),139 Ru
20,6mer-2-316 (KGIRRR),139 Ru
21,6mer-2-317 (RGLYKR),135 Ru
